Positions count from the first letter of the chain named.
B1: ADI-41202 (antibody, V domains shown)
VH: QVQLVESGAEVKKPGSSVKISCKASGGTFSSHPISWVRQAPGQGLEWMGRIVPIFGIANYAQKFQGRVTMIADKSTNTAYMELSNLRSEDTAVYYCASPVYDSSGFQWGQGTLVTVSS
VL: QSALIQPRSVSGSPGQSVTISCTGTSGDGGFYNYVSWYQQHPGKTPKLMIYDVDQRPSGVPDRFSGSKSGNTASLTISGLQAEDEADYYCCSYPGNPLYVFGTGTKLTVL
B2: ADI-41205 (antibody, V domains shown)
VH: QVQLQESGPGLVKPSGTLSLTCAVSGGSISSTNWWSWVRQPPGKGLEWIGEIYHSGSTNYNPSLKSRVTISVDKSNNQFSLNLSSVTAADTAVYYCARGVITYRGSWFLQYFDYWGQGTLVTVSS
VL: DIRVTQSPDSLAVSLGERATINCKSSQSLFYSSNNQNYLAWYQQKPGQPPKLLIYWASTRQSGVPHRFSGSGSGTDFTLTISSLQAEDVAVYYCQQYYSSPLTFGGGTKVEIK
B3: ADI-41207 (antibody, V domains shown)
VH: QVQLVQSGPALVKPTQTLTLTCTFSGFSLSTKGMCVSWIRQPPGKALEWLALIDWDDDKFYSTSLKTRLTISKDTSKNQVVLTMTNMDPVDTATYYCARTLYFYGSGSLSDYCFDYWGQGTPVTVSS
VL: QPVLTQPRSVSGSPGQSVTISCTGTSRDVGNYNFVSWYQQHPGKAPKLIIYDVTKRPSGVPDRFSGSKSGNTASLTISGLQAEDEADYYCCSYAGTYTWVFGGGTKVTVL
B4: ADI-41212 (antibody, V domains shown)
VH: EVQLLESGAEVKKPGASVKVSCKASGYTFTDYYIHWVRQAPGQGLEWMGRINPKNGDAIYAQNFQGRVTMTRDTSISTAYMEVSRLTSDDTAVYYCARDQMWLVLDYWGQGTLVTVSS
VL: QSALTQPASVSGSPGQSITISCTGTSSDVGGYDYVSWYQQHPGKAPKLMIHDVTNRPSGISHRFSGSKSGNTASLTISGLQAGDEADYYCSSYTRSNTKVFGTGTKVTVL
B5: ADI-41213 (antibody, V domains shown)
VH: EVQLVESGGGLIQPGGSLRLSCAASGFTVSSNYMSWVRQAAGKGLEWVSLIYSGDSTYYADSVKGRFTISRDNSQNTLYLQMNSLRAEDTAVYYCARDASPNVGYYGMDVWGQGTTVTVSS
VL: DIVLTQPPSVSVSPGQTASITCSGGKLGDTYACWYQQKPGQSPVLVIYQDSKRPSGIPERFSGSNSGNTATLTISGTQAMDEADYYCQAWDSSTARYVFGTGTKVTVL
B6: ADI-41214 (antibody, V domains shown)
VH: EVQLVESGGGLVQPGGSLRLSCAASGFTFSSYWMSWVRQAPGKGLEWVATIKQDGSEKYSVDSVKGRFTISRDNPKKSLYLQMNSLRAEDTAVYYCARDYRVEYYHSSDKLKRYYYYGMDVWGQGTTVTVSS
VL: DIRVTQSPSSLSASVGDRVTITCRASQSISTYLNWYQQKPGKAPKFLIYAASSLESGVPSRFSGSGSGTDFSLTISSLQPEDFATYYCQQSYSIPITFGQGTRLEIK
B7: ADI-41215 (antibody, V domains shown)
VH: QVQLVESGGGVVRPGGSLRLSCAASGFTFDDYGMSWVRQAPGKGLEWVSGINWSGGSTDYADSVKGRFTISRDNAKNSLYLQMNSLRAEDTALYYCAKEGQEWELLPWYFDLWGRGTLVTVSS
VL: QPVLTQPASVSGSPGQSITIPCTGTSSDVGIYNLVSWYQQHPGKAPKLMIYDVSKRPSGVSNRFSGSKSGNTASLTISGLQAEDEADYYCCSYAGGSTYVFGTGTKLTVL
B8: ADI-41224 (antibody, V domains shown)
VH: EVQLVETGGGLVQPGRSLRLSCTASGFTFGDYAMNWVRQAPGKGLEWIGIIRTKTYGGTTEYAASVKGRFTISRDDSKGIAYLQMNSLKTEDTGVYYCTMPVLNMDVWGQGTTVTVSS
VL: QPVLTQPHSVSESPGKTVTISCTRNIGNIASNYVQWYQQRPGSSPTTVIYEDNQRPSGVPDRFSGSIDISSNSASLTISGLKTEDEADYYCQSYDSNNPWVFGGGTQLTVL
B9: ADI-41225 (antibody, V domains shown)
VH: EVQLVESGGGLVKPGGSLRLSCAASGFSLSDYYMTWLRQAPGKGLEWVSSIGTTSTYTNYAESVKDRFTISRDNAKNSLYLQMNSLRAEDTAVYYCARDWGFGVERGYFDLWGRGTLVTVSS
VL: DIVLTQTPSTLSASVGDRVTITCRASQSISFWLAWYQQKPGKAPKLLIYKASTLESGVPSRFSGRGSGTDFTLTISSLQPDDFATYYCQQYNTYTWTFGQGTKVEIK
B10: ADI-41228 (antibody, V domains shown)
VH: EVQLLESGPGLVKPSETLSLTCTVSGGSISSYQWNWIRQPPGKGLEWLGYVYYSGSTNYNPSLKSRVTLSVDTSKNQFSLKLSSVTAADTAVYYCARDRRDGSFVFDYWGQGTLVTVSS
VL: B4 VL with A3V, T5I, D33N, H51Y, T54S, H62N, G83E, R95S, N97T, K99L
B11: ADI-41230 (antibody, V domains shown)
VH: QVQLVQSGAEVKKPGESLKISCKASGYSFTSHYWIGWVRQMPGKGLEWMGFIFPGDSDTRYSPSLQGQVTISADKSTNTAYLQWNSLKASDTAMYYCARLEYLVSGFEYWGQGTLVTVSS
VL: QPGLTQPHSVSESPGKTVTISCTRSSGSIASNYVHWYQQRPGSFPTTVIYEDNQRPSGVPDRFSGSIDSSSNSASLTISGLRTEDEADYYCQSYDSSNPVVFGGGTKVTVL
B12: ADI-41231 (antibody, V domains shown)
VH: QVQLVQSGAEVKKPGESLKISCKGSGYSFTNNWVGWVRQMPGKGLEWMGIIFPGDSDTRYSPSFRGQVTISVDTSINTAFLQWNSLGASDTAMYYCAMTDYNYSFKSWGQGTLVTVSS
VL: NFMLTQPHSVSESPGKTITISCTRSSGNIGNNYVQWYQQRPGSSFTTVIYEDYQRPSGVPDRFSGSIDSSSNSATLTISGLKTEDEADYYCQSYDSSNPYVFGTGTKVTVL

Molecular target: Respiratory Syncytial Virus fusion glycoprotein (RSV F) on RSV-A2 virus (Respiratory Syncytial Virus subtype A (RSV-A2))
Experiment: cell-based or functional assay

Row | Binder | Neutralization IC50 (RSV subtype A) [µg/mL]
1 | B1 | > 25
2 | B2 | > 25
3 | B3 | > 25
4 | B4 | > 25
5 | B5 | > 25
6 | B6 | > 25
7 | B7 | 0.32
8 | B8 | 0.13
9 | B9 | > 25
10 | B10 | > 25
11 | B11 | 24.1
12 | B12 | > 25

Molecular target: RSV prefusion F (preF), DS-Cav1 (Respiratory Syncytial Virus)
Experiment: BLI, IgG on anti-human IgG sensor, 100 nM antigen

Row | Binder | Kd [pM]
13 | B1 | 1120
14 | B2 | 1160
15 | B3 | 2530
16 | B4 | 3180
17 | B5 | 3470
18 | B6 | 5700
19 | B7 | 437
20 | B8 | 524
21 | B9 | 4150
22 | B10 | 4860
23 | B11 | 1830
24 | B12 | 3050

Molecular target: RSV postfusion F (postF), F deltaFP (Respiratory Syncytial Virus)
Experiment: BLI, IgG on anti-human IgG sensor, 100 nM antigen

Row | Binder | Kd [pM]
25 | B1 | 333
26 | B2 | 536
27 | B3 | 438
28 | B4 | 400
29 | B5 | 577
30 | B6 | 1020
31 | B7 | 563
32 | B8 | 558
33 | B9 | 733
34 | B10 | 618
35 | B11 | 407
36 | B12 | 426

From patent US20260258115A1
